Data taken from patent US20200332015A1 (NAMAB THERAPEUTICS, published 2020).

Columns and labels:
[1] = molecular target: human PDL1-Fc chimeric protein (human, UniProt Q9NZQ7 19-238, limits assumed); experiment: SPR T200, antigen-Fc captured, molecule as analyte
Experimental: (§1) Affinity to PDL1 of the different species was determined by SPR measurements using a Biacore T200 device (GE Healthcare). An antibody specific for the Fc region of human IgGs was immobilized on a sensor chip (CM5 sensor chip, GE Healthcare) by amine-coupling. For all formats, with the exception of the Fc containing Morrison formats, PDL1-Fc chimeric protein from different species were captured by the immobilized antibody. Three-fold serial dilutions of the molecules specific for PDL1 (0.12-90 nM) were injected into the flow cells for three minutes and dissociation was monitored for 10 minutes. After each injection cycle, surfaces were regenerated with one injection of a 3 M MgCl₂ solution. The apparent dissociation (kd) and association (kₐ) rate constants and the apparent dissociation equilibrium constant (KD) were calculated using one-to-one Langmuir binding model. Affinity to CD137 of the different species was determined using the identical setup as for PDL1 with the exception that CD137-Fc chimeric proteins from different species were captured by the immobilized antibody.

[2] = molecular target: cynomolgus PDL1-Fc chimeric protein (cynomolgus, UniProt G7PSE7 19-238); experiment: SPR T200, antigen-Fc captured, molecule as analyte
Experimental: as §1

[3] = molecular target: T1, Fc tagged human CD137 (R&D Systems, cat. 838-4B-100) (human, UniProt Q07011 24-186); experiment: SPR T200, antigen-Fc captured, molecule as analyte
T1 construct: also called CD137 Fc chimera; human CD137-Fc chimeric protein
Experimental: as §1

[4] = molecular target: T2, mouse Fc-tagged mouse CD137 (R&D Systems, cat. 937-4B-050) (mouse, UniProt P20334 24-187); experiment: SPR T200, antigen-Fc captured, molecule as analyte
T2 construct: also called mouse CD137-Fc chimeric protein
T2 sequence (looked up): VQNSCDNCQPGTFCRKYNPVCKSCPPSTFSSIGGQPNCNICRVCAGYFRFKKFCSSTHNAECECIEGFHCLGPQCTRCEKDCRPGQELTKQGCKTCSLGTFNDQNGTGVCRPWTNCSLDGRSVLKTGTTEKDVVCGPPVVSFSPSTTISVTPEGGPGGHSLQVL
Experimental: as §1

[5] = molecular target: T3, human CD137 expressed on Jurkat cells (human, UniProt Q07011 24-255); experiment: cell-based or functional assay
[6] = molecular target: T3, human CD137 expressed on Jurkat cells; experiment: cell-based or functional assay; remark: listed apart in the source
[7] = molecular target: T3, human CD137 expressed on Jurkat cells; experiment: cell-based or functional assay; remark: listed apart in the source
[8] = molecular target: T4, human PDL1 extracellular domain (human, UniProt Q9NZQ7 19-238); experiment: SPR T200, Morrison format captured, ECD analyte
T4 construct: extracellular domain; Analyte for the Fc containing Morrison formats
Experimental: as §1
The Fc containing formats were directly captured by the antibody specific for the Fc region of human IgGs. Two-fold serial dilutions of PDL1 extracellular domain or CD137 extracellular domain ranging from 90 to 0.35 nM were tested for binding to the IgG captured on the biosensor chip. After each injection cycle, surfaces were regenerated with one injection of a 3 M MgCl2 solution.

cynomolgus PDL1-Fc chimeric protein, sequence (G7PSE7 entry or part of it mutant): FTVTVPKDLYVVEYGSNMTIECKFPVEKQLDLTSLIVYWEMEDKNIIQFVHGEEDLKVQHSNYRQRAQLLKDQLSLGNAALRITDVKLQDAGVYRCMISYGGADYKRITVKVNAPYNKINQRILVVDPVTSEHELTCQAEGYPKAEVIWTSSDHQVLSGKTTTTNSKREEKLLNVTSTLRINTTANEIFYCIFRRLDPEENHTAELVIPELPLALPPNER

Row | Kd [1] | koff [1] | kon [1] | Kd [3] | koff [3] | kon [3] | Binder | further results
1 | 0.028 nM | 7.6e-05 s⁻¹ | 2.8e+06 M⁻¹ s⁻¹ | 3.4 nM | 0.00084 s⁻¹ | 250000 M⁻¹ s⁻¹ | PRO1134 (38-02-A04 sc01 scDb-i/33_03_G02 sc07 GL VH3 scDb-o) (bispecific antibody, scDb) DIQMTQSPSSLSASVGDAVTITCQASQSINDYLAWYQQKPGKSPKLLIYKASTLASGVPSRFSGSGSGTDFTLTISSLQPEDFATYYCQQGYIITDIDNVFGTGTKVTVLGGGGGSQVQLQESGPGLVKPSETLSLTCKVSGFSFSNSYWICWIRQPPGKGLEWIGCTFVGSSDSTYYANWAKGRVTISVDSSKNQFSLKLSSVTAADTAVYYCARHPSDAVYGYANNLWGQGTLVTVSSGGGGSGGGGSGGGGSGGGGSIQMTQSPSSLSASVGDRVTITCQASQSINNVLAWYQQKPGKAPKLLIYRASTLASGVPSRFSGSGSGTDFTLTISSLQPEDFATYYCQSSYGNYGDFGTGTKVTVLGGGGGSEVQLVESGGGLVQPGGSLRLSCAASGFSFSSGYDMCWVRQAPGKGLEWVGCVVAGSVDITYYASWAKGRFTISRDNSKNTVYLQMNSLRAEDTATYYCARKDAYSDAFNLWGPGTLVTVSS | Kd [4]: 420 nM; koff [4]: 0.19 s⁻¹; kon [4]: 450000 M⁻¹ s⁻¹
2 | 0.067 nM | 0.00011 s⁻¹ | 1.7e+06 M⁻¹ s⁻¹ | 3.7 nM | 0.00075 s⁻¹ | 200000 M⁻¹ s⁻¹ | PRO1125 (38-02-A04 scDb-i/33_03_G02 sc02 IF scDb-o) (bispecific antibody, scDb) DIQMTQSPSSLSASVGDRVTITCQASQSINDYLAWYQQKPGKSPKLLIYKASTLASGVPSRFSGSGSGTDFTLTISSLQPEDFATYYCQQGYIITDIDNVFGTGTKVTVLGGGGGSQVQLQESGPGLVKPSETLSLTCKVSGFSFSNSYWICWIRQPPGKGLEWIGCTFVGSSDSTYYANWAKGRVTISVDSSKNQFSLKLSSVTAADTAVYYCARHPSDAVYGYANNLWGQGTLVTVSSGGGGSGGGGSGGGGSGGGGSIQMTQSPSSLSASVGDRVTITCQASQSINNVLAWYQQKPGKAPKLLIYRASTLASGVPSRFSGSGSGTDFTLTISSLQPEDFATYYCQSSYGNYGDFGTGTKVTVLGGGGGSQVQLQESGPGLVKPSETLSLTCKVSGFSFSSGYDMCWVRQPPGKGLEWIACVVAGSVDITYYASWAKGRVTISVDSSKNQFSLKLSSVTAADTAVYFCARKDAYSDAFNLWGQGTLVTVSS | Kd [4]: 510 nM; koff [4]: 0.27 s⁻¹; kon [4]: 540000 M⁻¹ s⁻¹
3 | 0.16 nM | 0.00019 s⁻¹ | 1.2e+06 M⁻¹ s⁻¹ | 1.2 nM | 0.0021 s⁻¹ | 1.7e+06 M⁻¹ s⁻¹ | PRO1058 (38_27_C05 scDb-i/33-03-G02 sc01 scDb-o/mxr HSA (23-13-A01-sc03, sk17sh4)) (other, Trispecific scDb-scFv; also called PR01058) DIQMTQSPSSLSASVGDRVTITCQASQSINDYLAWYQQKPGKAPKLLIYKASTLASGVPSRFSGSGSGTDFTLTISSLQPEDFATYYCQQGYIITDIDNVFGTGTKVTVLGGGGGSQVQLQESGPGLVKPSETLSLTCKVSGFSFNNDYDMCWIRQPPGKGLEWIGCIDTGDGSTYYASWAKGRVTISVDSSKNQFSLKLSSVTAADTAVYYCAREAASSSGYGMGYFDLWGQGTLVTVSSGGGGSGGGGSGGGGSGGGGSIQMTQSPSSLSASVGDRVTITCQSSQSVYDNNWLAWYQQKPGKAPKLLIYRASNLASGVPSRFSGSGSGTDFTLTISSLQPEDFATYYCQGTYLSSNWYWAFGTGTKVTVLGGGGGSQVQLQESGPGLVKPSETLSLTCKVSGFSFSSGYDMCWIRQPPGKGLEWIGCVVAGSVDITYYASWAKGRVTISVDSSKNQFSLKLSSVTAADTAVYYCARKDAYSDAFNLWGQGTLVTVSSGGGGSGGGGSVVMTQSPSSLSASVGDRVTITCQASQIISSRSAWYQQKPGQPPKLLIYQASKLASGVPSRFSGSGSGTDFTLTISSLQPEDFATYYCQCTYIDSNFGAFGGGTKLTVLGGGGGSGGGGSGGGGSGGGGSEVQLVESGGGLVQPGGSLRLSCAASGFSFSSSYWICWVRQAPGKGLEWVGCVFTGDGTTYYASWAKGRFTISRDNSKNTVYLQMNSLRAEDTATYFCARPVSVYYYGMDLWGQGTLVTVSS | EC50 NFkB-luciferase, CHO-PDL1 cells, 6 h, + HSA [5]: 0.0709 µg/mL; Top of curve fit, NFkB-luciferase, CHO-PDL1 cells, 6 h, + HSA [5]: 40.1; EC50 NFkB-luciferase, CHO-PDL1 cells, 24 h, + HBA (so in the source) [6]: 0.121 µg/mL; Top of curve fit, NFkB-luciferase, CHO-PDL1 cells, 24 h, + HBA (so in the source) [6]: 20.5; max. activation, NF-kB reporter gene, CHO-PD-L1, 24h [7]: 36.2%; rel. IC50 (urelumab/test), NF-kB reporter gene, CHO-PD-L1, 24h [7]: 0.64 ratio

The remaining lines, values behind:

Row | Binder | Kd [1] | koff [1] | kon [1] | Kd [3] | koff [3] | kon [3] | further results
4 | PRO1013 (37-20-B03 CDR, VH1, scFv) (scFv, its row bears no clone label) scFv: DIQMTQSPSSLSASVGDRVTITCQASQSIGTYLAWYQQKPGKAPKLLIYRAFILASGVPSRFSGSGSGTDFTLTISSLQPEDFATYYCQSNFYSDSTTIGPNAFGTGTKVTVLGGGGGSGGGGSGGGGSGGGGSQVQLVQSGAEVKKPGASVKVSCKASGFSFNSDYWIYWVRQAPGQGLEWMGSIYGGSSGNTQYASWAQGRVTMTRDTSISTAYMELSSLRSEDTAVYYCARGYVDYGGATDLWGQGTLVTVSS | 0.045 nM | 0.00027 s⁻¹ | 6e+06 M⁻¹ s⁻¹ |  |  |  | Kd [2]: 0.053 nM; koff [2]: 0.00032 s⁻¹; kon [2]: 5.9e+06 M⁻¹ s⁻¹
5 | PRO966 (= PRO1052) (38_27_C05 sc01 scDb-i/33-03-G02 sc01 scDb-o/19-01-H04-sc03 scFv) (other, Trispecific scDb-scFv) DIQMTQSPSSLSASVGDRVTITCQASQSINDYLAWYQQKPGKAPKLLIYKASTLASGVPSRFSGSGSGTDFTLTISSLQPEDFATYYCQQGYIITDIDNVFGTGTKVTVLGGGGGSQVQLQESGPGLVKPSETLSLTCKVSGFSFNNDYDMCWIRQPPGKGLEWIGCIDTGDGSTYYASWAKGRVTISVDSSKNQFSLKLSSVTAADTAVYYCAREAASSSGYGMGYFDLWGQGTLVTVSSGGGGSGGGGSGGGGSGGGGSIQMTQSPSSLSASVGDRVTITCQSSQSVYDNNWLAWYQQKPGKAPKLLIYRASNLASGVPSRFSGSGSGTDFTLTISSLQPEDFATYYCQGTYLSSNWYWAFGTGTKVTVLGGGGGSQVQLQESGPGLVKPSETLSLTCKVSGFSFSSGYDMCWIRQPPGKGLEWIGCVVAGSVDITYYASWAKGRVTISVDSSKNQFSLKLSSVTAADTAVYYCARKDAYSDAFNLWGQGTLVTVSSGGGGSGGGGSIQMTQSPSSLSASVGDRVTITCQSSESVYSNNQLSWYQQKPGQPPKLLIYDASDLASGVPSRFSGSGSGTDFTLTISSLQPEDFATYYCAGGFSSSSDTAFGGGTKLTVLGGGGGSGGGGSGGGGSGGGGSEVQLVESGGGLVQPGGSLRLSCAASGFSLSSNAMGWVRQAPGKGLEYIGIISVGGFTYYASWAKGRFTISRDNSKNTVYLQMNSLRAEDTATYFCARDRHGGDSSGAFYLWGQGTLVTVSS | 0.083 nM | 0.00014 s⁻¹ | 1.6e+06 M⁻¹ s⁻¹ | 2.2 nM | 0.0022 s⁻¹ | 1e+06 M⁻¹ s⁻¹ | 
6 | PRO1062 (33-03-G02 sc01 IgG1 HC with 38_27_C05 sc01 scFv, PDL1/CD137(scFv) silent Morrison) (bispecific antibody, also called PR01062; Morrison-H) light: DIQMTQSPSSLSASVGDRVTITCQASQSINDYLAWYQQKPGKAPKLLIYKASTLASGVPSRFSGSGSGTDFTLTISSLQPEDFATYYCQQGYIITDIDNVFGTGTKVTVLGTVAAPSVFIFPPSDEQLKSGTASVVCLLNNFYPREAKVQWKVDNALQSGNSQESVTEQDSKDSTYSLSSTLTLSKADYEKHKVYACEVTHQGLSSPVTKSFNRGEC heavy: QVQLQESGPGLVKPSETLSLTCKVSGFSFSSGYDMCWIRQPPGKGLEWIGCVVAGSVDITYYASWAKGRVTISVDSSKNQFSLKLSSVTAADTAVYYCARKDAYSDAFNLWGQGTLVTVSSASTKGPSVFPLAPSSKSTSGGTAALGCLVKDYFPEPVTVSWNSGALTSGVHTFPAVLQSSGLYSLSSVVTVPSSSLGTQTYICNVNHKPSNTKVDKRVEPKSCDKTHTCPPCPAPEAAGGPSVFLFPPKPKDTLMISRTPEVTCVVVDVSHEDPEVKFNWYVDGVEVHNAKTKPREEQYNSTYRVVSVLTVLHQDWLNGKEYKCKVSNKALGAPIEKTISKAKGQPREPQVYTLPPSREEMTKNQVSLTCLVKGFYPSDIAVEWESNGQPENNYKTTPPVLDSDGSFFLYSKLTVDKSRWQQGNVFSCSVMHEALHNHYTQKSLSLSPGKGGGGSGGGGSIQMTQSPSSLSASVGDRVTITCQASQSINNVLAWYQQKPGKAPKLLIYRASTLASGVPSRFSGSGSGTDFTLTISSLQPEDFATYYCQSSYGNYGDFGTGTKVTVLGGGGGSGGGGSGGGGSGGGGSQVQLQESGPGLVKPSETLSLTCKVSGFSFSNSYWICWIRQPPGKGLEWIGCTFVGSSDSTYYANWAKGRVTISVDSSKNQFSLKLSSVTAADTAVYYCARHPSDAVYGYANNLWGQGTLVTVSS |  |  |  |  |  |  | Kd [8]: 0.038 nM; koff [8]: 5e-05 s⁻¹; kon [8]: 1.3e+06 M⁻¹ s⁻¹
7 | PRO830 (33-03-G02 CDR, scFv) (scFv) scFv: DIQMTQSPSSLSASVGDRVTITCQASQSINDYLAWYQQKPGKAPKLLIYKASTLASGVPSRFSGSGSGTDFTLTISSLQPEDFATYYCQQGYIITDIDNVFGTGTKVTVLGGGGGSGGGGSGGGGSGGGGSQVQLQESGPGLVKPSETLSLTCKVSGFSFSSGYDMCWIRQPPGKGLEWIGCVVAGSVDITYYASWAKGRVTISVDSSKNQFSLKLSSVTAADTAVYYCARKDAYSDAFNLWGQGTLVTVSS | 0.076 nM | 0.00016 s⁻¹ | 2.1e+06 M⁻¹ s⁻¹ |  |  |  | Kd [2]: 0.094 nM; koff [2]: 0.0002 s⁻¹; kon [2]: 2.2e+06 M⁻¹ s⁻¹
